Key:
Assay in all cases: SPR; Biacore T200, CM5 chip with immobilised anti-His antibody, 20 °C; His-tagged receptor or antigen captured; serial dilutions of anti-CD20 X-body, IgG or IgA injected (120 s binding, 240 s dissociation, 30 µL/min); 1:1 binding kinetic model or steady-state affinity model
Conditions in all cases: both partners purified
FcγRIIb = biological target: T1, FcγRIIb (human, UniProt P31994 43-217)
T1 construct: human FcγRIIb, extracellular domain; source: HEK293F, secreted, purified (HisTrap HP); not shown: His6, C-terminal, kept
T1 sequence (looked up): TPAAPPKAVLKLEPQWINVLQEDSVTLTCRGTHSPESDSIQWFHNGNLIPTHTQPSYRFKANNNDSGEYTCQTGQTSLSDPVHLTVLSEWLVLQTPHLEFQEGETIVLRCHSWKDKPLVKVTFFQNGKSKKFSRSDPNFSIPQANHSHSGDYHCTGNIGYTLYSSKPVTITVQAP

CD20 = biological target: T2, CD20 (human, UniProt P11836 1-297)
T2 construct: CD20, the antigen of rituximab; His-tagged, captured on the anti-His chip; also called antigen CD20; hCD20
T2 sequence (looked up): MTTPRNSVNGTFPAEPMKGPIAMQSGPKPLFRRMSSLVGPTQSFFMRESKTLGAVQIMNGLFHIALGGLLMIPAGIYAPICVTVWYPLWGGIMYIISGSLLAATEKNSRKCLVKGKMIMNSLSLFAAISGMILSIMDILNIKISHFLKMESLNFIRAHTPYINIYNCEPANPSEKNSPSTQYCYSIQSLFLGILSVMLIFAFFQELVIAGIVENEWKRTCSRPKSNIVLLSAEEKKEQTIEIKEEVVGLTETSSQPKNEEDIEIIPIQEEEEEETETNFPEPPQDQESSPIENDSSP

FcγRIIa^H131 = biological target: T3, FcγRIIa^H131 (human, UniProt P12318 34-217)
T3 construct: The methods name FcγRIIa only; source: HEK293F, secreted, purified (HisTrap HP); not shown: His6, C-terminal, kept
T3 sequence (looked up): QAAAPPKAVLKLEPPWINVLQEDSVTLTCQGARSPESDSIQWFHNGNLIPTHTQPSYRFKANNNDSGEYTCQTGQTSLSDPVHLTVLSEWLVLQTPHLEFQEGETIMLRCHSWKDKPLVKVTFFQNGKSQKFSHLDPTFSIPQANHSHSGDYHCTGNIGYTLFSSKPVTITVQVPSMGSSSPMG

FcγRIIIa^F158 = biological target: T4, FcγRIIIa^F158 (human, UniProt P08637 17-208)
T4 construct: source: HEK293F, secreted, purified (HisTrap HP); not shown: His6, C-terminal, kept
T4 sequence (P08637 17-208): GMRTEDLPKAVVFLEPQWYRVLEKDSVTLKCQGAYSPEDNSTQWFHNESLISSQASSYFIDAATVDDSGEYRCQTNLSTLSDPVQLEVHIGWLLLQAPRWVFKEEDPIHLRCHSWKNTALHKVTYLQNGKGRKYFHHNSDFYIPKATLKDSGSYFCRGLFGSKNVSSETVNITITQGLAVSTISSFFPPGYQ

B1: Rituximab X-body (antibody, human IgG1, kappa)
heavy: not shown
chain: QIVLSQSPAILSASPGEKVTMTCRASSSVSYIHWFQQKPGSSPKPWIYATSNLASGVPVRFSGSGSGTSYSLTISRVEAEDAATYYCQQWTSNPPTFGGGTKLEIKRTVAAPSVFIFPPSDEQLKSGTASVVCLLNNFYPREAKVQWKVDNALQSGNSQESVTEQDSKDSTYSLSSTLTLSKADYEKHKVYACEVTHQGLSSPVTKSFNRGECGGGGSGGGGSGGGGSGGGGSGGGGSGGGGSVPPPPPCCHPRLSLHRPALEDLLLGSEANLTCTLTGLRDASGATFTWTPSSGKSAVQGPPERDLCGCYSVSSVLPGCAQPWNHGETFTCTAAHPELKTPLTANITKSGNTFRPEVHLLPPPSEELALNELVTLTCLARGFSPKDVLVRWLQGSQELPREKYLTWASRQEPSQGTTTYAVTSILRVAAEDWKKGETFSCMVGHEALPLAFTQKTIDRMAGK
notes: 6×G4S linker; IgA2 Fc (hinge, CH2, CH3) without the tailpiece region; Tetramer of two heavy chains and two chimeric chains: two Fabs, one IgG1 Fc, one IgA2 Fc; also called anti-CD20 X-body; anti-human CD20 X-body with 6×G4S linker; source: HEK293F, transfected (pTT5), purified (HiTrap Protein A, Superdex 200 Increase); copies: 2 + 2
- Kd (FcγRIIb): 0.00422 nM
- Kd (CD20): 8.04 nM
- Kd (FcγRIIa^H131): 0.0364 nM
- Kd (FcγRIIIa^F158): 0.0216 nM

From PMC9706586 (Theranostics, 2022)
